From the supplement of paper PMC11246515 come the findings set out here.

± gives the standard deviation of the averaged measurements.

The data set is described as follows: total protein half-life in vivo (active degradation + dilution); higher = more stable protein.
The mark [1] stands for this setting: E. coli NCM3722 delta-clpP delta-lon delta-hslV, growth: N-lim chemostat, doubling time 6 h.
The mark [2] stands for this setting: E. coli NCM3722 delta-clpP, growth: N-lim chemostat, doubling time 6 h.
Setting [3] is: E. coli NCM3722 delta-hslV, growth: N-lim chemostat, doubling time 6 h.
[4] abbreviates: E. coli NCM3722 delta-lon, growth: N-lim chemostat, doubling time 6 h.
[5] abbreviates: E. coli NCM3722 delta-smpB, growth: N-lim chemostat, doubling time 6 h.
The mark [6] stands for this setting: wild type E. coli NCM3722, growth: C-lim chemostat, doubling time 3 h.
Setting [7] is: wild type E. coli NCM3722, growth: C-lim chemostat, doubling time 6 h.
Where [8] appears, read: wild type E. coli NCM3722, growth: C-lim chemostat, doubling time 12 h.
Setting [9] is: wild type E. coli NCM3722, growth: N-lim chemostat, doubling time 6 h.
Setting [10] is: wild type E. coli NCM3722, growth: N-lim chemostat, doubling time 12 h.
Setting [11] is: wild type E. coli NCM3722, growth: P-lim chemostat, doubling time 6 h.
The mark [12] stands for this setting: wild type E. coli NCM3722, growth: P-lim chemostat, doubling time 12 h.

Turning to “MAGKTMIPLLAFAAWSGTGKTTLLKKLIPALCARGIRPGLIKHTHHDMDVDKPGKDSYELRKAGAAQTIVASQQRWALMTETPDEEELDLQFLASRMDTSKLDLILVEGFKHEEIAKIVLFRDGAGHRPEELVIDRHVIAVASDVPLNLDVALLDINDVEGLADFVVEWMQKQNG”, the “total protein half-life in vivo” value stood at 4.44 ± 0.4 h under setting [1]; 4.61 h under setting [2]; 4.37 ± 0.056 h under setting [3]; 4.48 ± 0.64 h under setting [4]; 3.88 ± 0.7 h under setting [5]; 3.22 ± 0.15 h under setting [6]. The “total protein half-life in vivo” value under setting [7] was determined as 5.23 ± 0.18 h; the “total protein half-life in vivo” value under setting [8] is 9.51 h; the “total protein half-life in vivo” value under setting [9] stood at 4.01 ± 0.23 h; the “total protein half-life in vivo” value under setting [10] worked out at 5.54 ± 1.1 h; the “total protein half-life in vivo” value under setting [11] was determined as 5.85 h; the “total protein half-life in vivo” value under setting [12] was 11 ± 0.32 h.
In the case of “MLSYRHSFHAGNHADVLKHTVQSLIIESLKEKDKPFLYLDTHAGAGRYQLGSEHAERTGEYLEGIARIWQQDDLPAELEAYINVVKHFNRSGQLRYYPGSPLIARLLLREQDSLQLTELHPSDYPLLRSEFQKDSRARVEKADGFQQLKAKLPPVSRRGLILIDPPYEMKTDYQAVVSGIAEGYKRFATGIYALWYPVVLRQQIKRMIHDLEATGIRKILQIELAVLPDSDRRGMTASGMIVINPPWKLEQQMNNVLPWLHSKLVPAGTGHATVSWIVPE”, the “total protein half-life in vivo” value was determined as 4.85 ± 0.21 h under setting [1]; 5.06 ± 0.45 h under setting [2]; 4.81 ± 0.14 h under setting [3]; 4.96 ± 0.05 h under setting [4]; 4.87 ± 0.07 h under setting [5]; 3.16 ± 0.27 h under setting [6]. Moreover, the “total protein half-life in vivo” value turned out to be 6.11 ± 0.47 h under setting [7]; 10.7 ± 0.25 h under setting [8]; 5.06 ± 0.073 h under setting [9]; 8.35 ± 0.22 h under setting [10]; 6.55 ± 0.2 h under setting [11]; 14 ± 2.8 h under setting [12].
As to “MLPPYFLFKEMTDTQYIGRFAPSPSGELHFGSLIAALGSYLQARARQGRWLVRIEDIDPPREVPGAAETILRQLEHYGLHWDGDVLWQSQRHDAYREALAWLHEQGLSYYCTCTRARIQSIGGIYDGHCRVLHHGPDNAAVRIRQQHPVTQFTDQLRGIIHADEKLAREDFIIHRRDGLFAYNLAVVVDDHFQGVTEIVRGADLIEPTVRQISLYQLFGWKVPDYIHLPLALNPQGAKLSKQNHAPALPKGDPRPVLIAALQFLGQQAEAHWQDFSVEQILQSAVKNWRLTAVPESAIVNSTFSNASC”, the “total protein half-life in vivo” value reads like this: under setting [2], 3.9 h; under setting [4], 5.27 h; under setting [5], 3.67 ± 0.12 h; under setting [6], 3.26 ± 0.7 h; under setting [7], 5.73 h; under setting [8], 3.64 h. The “total protein half-life in vivo” value by setting is: under setting [9], 3.84 h; under setting [11], 4.7 h; under setting [12], 9.87 ± 0.39 h.
On to “MANPLYQKHIISINDLSRDDLNLVLATAAKLKANPQPELLKHKVIASCFFEASTRTRLSFETSMHRLGASVVGFSDSANTSLGKKGETLADTISVISTYVDAIVMRHPQEGAARLATEFSGNVPVLNAGDGSNQHPTQTLLDLFTIQETQGRLDNLHVAMVGDLKYGRTVHSLTQALAKFDGNRFYFIAPDALAMPQYILDMLDEKGIAWSLHSSIEEVMAEVDILYMTRVQKERLDPSEYANVKAQFVLRASDLHNAKANMKVLHPLPRVDEIATDVDKTPHAWYFQQAGNGIFARQALLALVLNRDLVL [P0A786]”, for which the “total protein half-life in vivo” value is 6.1 ± 1.2 h under setting [1]; 4.74 ± 0.28 h under setting [2]; 4.54 ± 0.5 h under setting [3]; 4.9 ± 0.09 h under setting [4]; 5.02 ± 0.63 h under setting [5]; 3.22 ± 0.23 h under setting [6]. In addition, the “total protein half-life in vivo” value by setting is: under setting [7], 5.83 ± 0.35 h; under setting [8], 10.4 ± 1.8 h; under setting [9], 4.75 ± 0.085 h; under setting [10], 8.23 ± 1.4 h; under setting [11], 5.94 ± 0.21 h; under setting [12], 10.7 ± 0.62 h.
In the case of “MSIAVTTTDPTNTGVSTTSSSSLTGSNAADLQSSFLTLLVAQLKNQDPTNPMENNELTSQLAQISTVSGIEKLNTTLGSISGQIDNSQSLQASNLIGHGVMIPGTTVLAGTGSEEGAVTTTTPFGVELQQAADKVTATITDKNGAVVRTIDIGELTAGVHSFTWDGTLTDGSTAPNGSYNVAISASNGGTQLVAQPLQFALVQGVIRGNSGNTLDLGTYGTTTLDEVRQII”, the “total protein half-life in vivo” value reads like this: under setting [1], 3.99 ± 0.28 h; under setting [6], 0.36 ± 0.076 h; under setting [7], 1.65 h; under setting [8], 0.363 h.
On to “MLDLFADAEPWQEPLAAGAVILRRFAFNAAEQLIRDINDVASQSPFRQMVTPGGYTMSVAMTNCGHLGWTTHRQGYLYSPIDPQTNKPWPAMPQSFHNLCQRAATAAGYPDFQPDACLINRYAPGAKLSLHQDKDEPDLRAPIVSVSLGLPAIFQFGGLKRNDPLKRLLLEHGDVVVWGGESRLFYHGIQPLKAGFHPLTIDCRYNLTFRQAGKKE”, for which the “total protein half-life in vivo” value was found to be 4.32 h under setting [2]; 2.76 h under setting [3]; 3.17 h under setting [4]; 3.02 ± 0.09 h under setting [5]; 2.87 ± 0.47 h under setting [9]; 4.66 ± 0.55 h under setting [10]. Besides, the “total protein half-life in vivo” value is, setting by setting: under setting [11], 3.76 ± 0.13 h; under setting [12], 5.89 h.
On to “MAKSVPAIFLDRDGTINVDHGYVHEIDNFEFIDGVIDAMRELKKMGFALVVVTNQSGIARGKFTEAQFETLTEWMDWSLADRDVDLDGIYYCPHHPQGSVEEFRQVCDCRKPHPGMLLSARDYLHIDMAASYMVGDKLEDMQAAVAANVGTKVLVRTGKPITPEAENAADWVLNSLADLPQAIKKQQKPAQ”, for which the “total protein half-life in vivo” value under setting [1] stood at 5.54 ± 0.29 h; the “total protein half-life in vivo” value under setting [2] was determined as 5.269 ± 0.022 h; the “total protein half-life in vivo” value under setting [3] was 4.97 ± 0.51 h; the “total protein half-life in vivo” value under setting [4] amounted to 5.62 ± 0.25 h; the “total protein half-life in vivo” value under setting [5] was 4.95 ± 0.083 h; the “total protein half-life in vivo” value under setting [6] stood at 2.54 ± 0.091 h. Also, the “total protein half-life in vivo” value is 4.782 ± 0.0071 h under setting [7]; 13.4 ± 3.2 h under setting [8]; 5.05 ± 0.25 h under setting [9]; 8.7 ± 0.32 h under setting [10]; 5.49 ± 0.68 h under setting [11]; 11.4 ± 1.5 h under setting [12].
Turning to “MFLVDSHCHLDGLDYESLHKDVDDVLAKAAARDVKFCLAVATTLPGYLHMRDLVGERDNVVFSCGVHPLNQNDPYDVEDLRRLAAEEGVVALGETGLDYYYTPETKVRQQESFIHHIQIGRELNKPVIVHTRDARADTLAILREEKVTDCGGVLHCFTEDRETAGKLLDLGFYISFSGIVTFRNAEQLRDAARYVPLDRLLVETDSPYLAPVPHRGKENQPAMVRDVAEYMAVLKGVAVEELAQVTTDNFARLFHIDASRLQSIR [P0AFQ7]”, the “total protein half-life in vivo” value was 4.81 ± 0.12 h under setting [1]; 3.33 ± 0.04 h under setting [2]; 3.06 ± 0.22 h under setting [3]; 3.76 ± 0.27 h under setting [4]; 2.97 ± 0.21 h under setting [5]; 2.46 ± 0.053 h under setting [6]. The “total protein half-life in vivo” value is 4.73 ± 0.61 h under setting [7]; 9.89 ± 2.7 h under setting [8]; 3.63 ± 0.31 h under setting [9]; 5.34 ± 1.1 h under setting [10]; 4.39 ± 0.14 h under setting [11]; 7.55 ± 0.79 h under setting [12].
